{
  "source": "patent US20030207263",
  "about": "“Method of screening therapeutic agents” (published 2003)",
  "key": {"Smad3": {"biological_target": "Smad3 (Homo sapiens, UniProt P84022 P84022:1-425)", "sequence (P84022 whole entry, the tested form may be a part, one chain of several)": "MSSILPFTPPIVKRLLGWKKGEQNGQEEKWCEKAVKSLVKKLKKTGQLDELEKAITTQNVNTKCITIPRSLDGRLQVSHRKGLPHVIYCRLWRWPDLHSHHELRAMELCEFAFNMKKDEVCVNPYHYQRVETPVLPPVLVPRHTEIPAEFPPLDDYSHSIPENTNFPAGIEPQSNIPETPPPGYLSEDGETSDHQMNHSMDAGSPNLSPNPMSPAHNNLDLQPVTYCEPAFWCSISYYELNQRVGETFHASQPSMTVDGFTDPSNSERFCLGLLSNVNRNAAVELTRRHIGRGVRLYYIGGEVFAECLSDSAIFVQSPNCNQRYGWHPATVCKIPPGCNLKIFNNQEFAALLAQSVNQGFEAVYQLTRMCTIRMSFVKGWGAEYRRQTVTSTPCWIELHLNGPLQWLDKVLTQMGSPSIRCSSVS", "assay": "EMSA; not fused to GST", "conditions": "label: 33P"}, "GST-Smad2 full length": {"biological_target": "GST-Smad2 full length (UniProt Q15796 Q15796:1-467)", "sequence (Q15796 whole entry, one chain of several)": "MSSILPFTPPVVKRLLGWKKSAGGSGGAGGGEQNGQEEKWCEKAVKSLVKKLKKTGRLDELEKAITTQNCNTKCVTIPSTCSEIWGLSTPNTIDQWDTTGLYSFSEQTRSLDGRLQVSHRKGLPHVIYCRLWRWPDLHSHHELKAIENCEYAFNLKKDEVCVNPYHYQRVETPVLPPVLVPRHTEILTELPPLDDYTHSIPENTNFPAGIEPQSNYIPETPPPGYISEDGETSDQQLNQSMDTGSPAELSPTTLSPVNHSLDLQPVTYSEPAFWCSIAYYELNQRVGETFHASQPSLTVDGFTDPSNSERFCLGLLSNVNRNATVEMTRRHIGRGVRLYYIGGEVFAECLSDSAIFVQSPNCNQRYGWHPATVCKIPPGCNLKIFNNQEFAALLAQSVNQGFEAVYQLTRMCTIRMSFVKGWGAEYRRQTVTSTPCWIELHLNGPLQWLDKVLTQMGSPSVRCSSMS", "assay": "EMSA", "conditions": "tags: GST, E. coli; label: 33P"}, "GST-Smad1 full length": {"biological_target": "GST-Smad1 full length (UniProt Q15797 Q15797:1-465)", "sequence (Q15797 whole entry, one chain of several)": "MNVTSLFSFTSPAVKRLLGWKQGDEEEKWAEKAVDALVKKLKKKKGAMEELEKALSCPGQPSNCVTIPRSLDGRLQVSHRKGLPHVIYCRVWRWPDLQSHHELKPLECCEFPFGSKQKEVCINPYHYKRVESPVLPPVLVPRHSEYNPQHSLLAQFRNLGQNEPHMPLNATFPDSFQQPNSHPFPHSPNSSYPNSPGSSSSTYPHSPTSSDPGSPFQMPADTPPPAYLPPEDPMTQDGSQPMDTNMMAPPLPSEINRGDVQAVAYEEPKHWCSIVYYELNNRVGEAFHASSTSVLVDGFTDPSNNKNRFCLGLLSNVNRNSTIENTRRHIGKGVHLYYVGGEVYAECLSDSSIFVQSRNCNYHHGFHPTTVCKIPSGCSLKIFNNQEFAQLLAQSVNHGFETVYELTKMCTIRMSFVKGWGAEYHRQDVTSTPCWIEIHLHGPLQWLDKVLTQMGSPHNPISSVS", "assay": "EMSA", "conditions": "tags: GST, E. coli; label: 33P"}, "Smad2": {"biological_target": "Smad2 (Homo sapiens, UniProt Q15796 Q15796:1-467)", "sequence (Q15796 whole entry, one chain of several)": "as the sequence (Q15796 whole entry, one chain of several) above", "assay": "EMSA", "conditions": "label: 33P"}, "GST-Smad4 full length": {"biological_target": "GST-Smad4 full length (UniProt Q13485 Q13485:1-552)", "sequence (Q13485 whole entry, one chain of several)": "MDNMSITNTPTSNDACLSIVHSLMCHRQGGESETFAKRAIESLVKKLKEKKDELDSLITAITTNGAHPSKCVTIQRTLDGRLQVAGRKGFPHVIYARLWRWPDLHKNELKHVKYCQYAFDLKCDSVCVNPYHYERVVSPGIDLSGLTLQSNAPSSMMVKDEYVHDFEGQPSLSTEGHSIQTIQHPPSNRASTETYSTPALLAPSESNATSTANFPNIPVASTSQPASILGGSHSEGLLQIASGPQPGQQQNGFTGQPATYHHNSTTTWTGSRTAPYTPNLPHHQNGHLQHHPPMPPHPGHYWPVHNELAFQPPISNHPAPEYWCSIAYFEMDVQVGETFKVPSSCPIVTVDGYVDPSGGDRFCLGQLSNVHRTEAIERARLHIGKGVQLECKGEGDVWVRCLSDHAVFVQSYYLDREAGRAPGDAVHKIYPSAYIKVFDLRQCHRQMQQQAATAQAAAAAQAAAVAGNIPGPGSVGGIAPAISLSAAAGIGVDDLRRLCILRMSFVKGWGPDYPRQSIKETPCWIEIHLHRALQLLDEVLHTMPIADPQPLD", "assay": "EMSA; direct and specific", "conditions": "tags: GST, E. coli; label: 33P"}},
  "data": [
    {"binder": "CAGA probe (dsDNA) DNA 1: TCGAGAGCCAGACAAGGAGCCAGACAAGGAGCCAGACAC DNA 2: GTGTCTGGCTCCTTGTCTGGCTCCTTGTCTGGCTCTCGA", "values": [
      {"measurement": "binding result", "setting": "Smad3", "result": "binds"},
      {"measurement": "binding result", "setting": "GST-Smad2 full length", "result": "no binding"},
      {"measurement": "binding result", "setting": "GST-Smad1 full length", "result": "no binding"},
      {"measurement": "binding result", "setting": "Smad2", "result": "no binding"},
      {"measurement": "binding result", "setting": "GST-Smad4 full length", "result": "binds"}
    ]}
  ]
}
